Measured values reported in patent US20190119358A1.
*1 amine or outer side, *2 acyl side, *3 side chain or, on linkers, in order; H or OH if unused. Bridges are numbered along the chain shown (N, C = ends). Where no end group is shown, it is not given here. [ ]: non-standard residue; d: D form. UBX = ((2S,3R)-3-amino-2-hydroxy-4-phenylbutanoyl)-L-leucine, CC(C)C[C@H](NC(=O)[C@@H](O)[C@@H](Cc1ccccc1)N[*:1])C(=O)[*:2]; TDSPA = (R)-2-amino-3-(tert-butyldisulfanyl)propanoic acid, CC(C)(C)SSC[C@H](N[*:1])C(=O)[*:2]; m‑xylylene = m-xylylene thioether bridge between Cys; Trp(7-aza) = N[C@@H](Cc1c[nH]c2ncccc12)C(=O)O; NMePhe(4-F) = CN[C@@H](Cc1ccc(F)cc1)C(=O)O; mXylylene = c1cc(C[*:1])cc(C[*:2])c1; NMeY = CN[C@@H](Cc1ccc(O)cc1)C(=O)O; Glutaryl = O=C(CCCC(=O)[*:2])[*:1]; PEG4 = NCCOCCOCCOCCOCCC(=O)O; Phg = N[C@H](C(=O)O)c1ccccc1; Tle = CC(C)(C)[C@H](N)C(=O)O; NMeS = CN[C@@H](CO)C(=O)O; NMeA = CN[C@@H](C)C(=O)O; Pra = C#CC[C@H](N)C(=O)O; Nva = CCC[C@H](N)C(=O)O; Ahp = NCCCCCCC(=O)O; Sar = CNCC(=O)O

Target: GMPPNP-loaded H-Ras or GTP-loaded K-Ras
Assay: FP competition, displacement of probe R4007 from Ras

Row | Binder | IC50
1 | Ac-[Nva]C[Tle]YHT[Trp(7-aza)][Trp(7-aza)]E[Trp(7-aza)][Nva]HC-NH2 (linker 2-13 via m‑xylylene) [R4100] | 1.06 nM
2 | [Nva]CY[Tle]KH[NMeA][Phg][Trp(7-aza)]Y[NMePhe(4-F)][Sar]C-NH2 (linker 2-13 via mXylylene; N-terminus assumed; SMILES CCC[C@H](N)C(=O)N[C@H]1CSCc2cccc(c2)CSC[C@@H](C(N)=O)NC(=O)CN(C)C(=O)[C@H](Cc2ccc(F)cc2)N(C)C(=O)[C@H](Cc2ccc(O)cc2)NC(=O)[C@H](Cc2c[nH]c3ncccc23)NC(=O)[C@H](c2ccccc2)NC(=O)[C@H](C)N(C)C(=O)[C@H](Cc2c[nH]cn2)NC(=O)[C@H](CCCCN)NC(=O)[C@H](C(C)(C)C)NC(=O)[C@H](Cc2ccc(O)cc2)NC1=O) [R4002] | 7.92 nM
3 | Ac-CY[Tle]KH[NMeA][Phg][Trp(7-aza)]Y[NMePhe(4-F)][Sar]C-NH2 (linker 1-12 via mXylylene; SMILES CC(=O)N[C@H]1CSCc2cccc(c2)CSC[C@@H](C(N)=O)NC(=O)CN(C)C(=O)[C@H](Cc2ccc(F)cc2)N(C)C(=O)[C@H](Cc2ccc(O)cc2)NC(=O)[C@H](Cc2c[nH]c3ncccc23)NC(=O)[C@H](c2ccccc2)NC(=O)[C@H](C)N(C)C(=O)[C@H](Cc2c[nH]cn2)NC(=O)[C@H](CCCCN)NC(=O)[C@H](C(C)(C)C)NC(=O)[C@H](Cc2ccc(O)cc2)NC1=O) [R4112] | 21.4 nM
4 | Ac-[Nva]CY[Tle]KH[NMeA][Phg][Trp(7-aza)]Y[NMePhe(4-F)][Sar]C[dS]KG[TDSPA]VVL (linker 2-13 via mXylylene) [R4110] | 16.4 nM
5 | Ac-[Nva]CY[Tle]KH[NMeA][Phg][Trp(7-aza)]Y[NMePhe(4-F)][NMeA]C-NH2 (linker 2-13 via mXylylene; SMILES CCC[C@H](NC(C)=O)C(=O)N[C@H]1CSCc2cccc(c2)CSC[C@@H](C(N)=O)NC(=O)[C@H](C)N(C)C(=O)[C@H](Cc2ccc(F)cc2)N(C)C(=O)[C@H](Cc2ccc(O)cc2)NC(=O)[C@H](Cc2c[nH]c3ncccc23)NC(=O)[C@H](c2ccccc2)NC(=O)[C@H](C)N(C)C(=O)[C@H](Cc2c[nH]cn2)NC(=O)[C@H](CCCCN)NC(=O)[C@H](C(C)(C)C)NC(=O)[C@H](Cc2ccc(O)cc2)NC1=O) [R4101] | 1.45 nM
6 | Ac-[Nva]CY[Tle]KH[NMeA][Phg][Trp(7-aza)]Y[NMePhe(4-F)][Sar]C[dS][dA]GCVIM (linker 2-13 via mXylylene) [R4102] | 1.82 nM
7 | Ac-SCY[Tle]KH[NMeA][Phg][Trp(7-aza)]Y[NMePhe(4-F)][Sar]C-NH2 (linker 2-13 via mXylylene; SMILES CC(=O)N[C@@H](CO)C(=O)N[C@H]1CSCc2cccc(c2)CSC[C@@H](C(N)=O)NC(=O)CN(C)C(=O)[C@H](Cc2ccc(F)cc2)N(C)C(=O)[C@H](Cc2ccc(O)cc2)NC(=O)[C@H](Cc2c[nH]c3ncccc23)NC(=O)[C@H](c2ccccc2)NC(=O)[C@H](C)N(C)C(=O)[C@H](Cc2c[nH]cn2)NC(=O)[C@H](CCCCN)NC(=O)[C@H](C(C)(C)C)NC(=O)[C@H](Cc2ccc(O)cc2)NC1=O) [R4104] | 3.29 nM
8 | Ac-[Nva]CY[Tle]KH[NMeA][Phg][Trp(7-aza)]Y[NMePhe(4-F)][Sar]C[dS]KG[TDSPA]VIM (linker 2-13 via mXylylene) [R4109] | 14.2 nM
9 | [UBX][Ahp][Nva]CY[Tle]KH[NMeA][Phg][Trp(7-aza)]Y[NMePhe(4-F)][Sar]C-NH2 (linker 4-15 via mXylylene; N-terminus assumed; SMILES CCC[C@H](NC(=O)CCCCCCNC(=O)[C@H](CC(C)C)NC(=O)[C@@H](O)[C@H](N)Cc1ccccc1)C(=O)N[C@H]1CSCc2cccc(c2)CSC[C@@H](C(N)=O)NC(=O)CN(C)C(=O)[C@H](Cc2ccc(F)cc2)N(C)C(=O)[C@H](Cc2ccc(O)cc2)NC(=O)[C@H](Cc2c[nH]c3ncccc23)NC(=O)[C@H](c2ccccc2)NC(=O)[C@H](C)N(C)C(=O)[C@H](Cc2c[nH]cn2)NC(=O)[C@H](CCCCN)NC(=O)[C@H](C(C)(C)C)NC(=O)[C@H](Cc2ccc(O)cc2)NC1=O) [R4106] | 8.38 nM
10 | Ac-[Nva]CY[Tle]KH[NMeA][Phg][Trp(7-aza)]Y[NMePhe(4-F)][Sar]C[dS]KGCVIM (linker 2-13 via mXylylene) [R4105] | 3.31 nM
11 | Ac-[Nva]CY[Tle]KH[NMeA][Phg][Trp(7-aza)]Y[NMePhe(4-F)][Sar]C (linker 2-13 via mXylylene) [R4108] | 9.45 nM
12 | Glutaryl-[Nva]CY[Tle]KH[NMeA][Phg][Trp(7-aza)]Y[NMePhe(4-F)][Sar]C-NH2 (linker 2-13 via mXylylene; SMILES CCC[C@H](NC(=O)CCCC(=O)O)C(=O)N[C@H]1CSCc2cccc(c2)CSC[C@@H](C(N)=O)NC(=O)CN(C)C(=O)[C@H](Cc2ccc(F)cc2)N(C)C(=O)[C@H](Cc2ccc(O)cc2)NC(=O)[C@H](Cc2c[nH]c3ncccc23)NC(=O)[C@H](c2ccccc2)NC(=O)[C@H](C)N(C)C(=O)[C@H](Cc2c[nH]cn2)NC(=O)[C@H](CCCCN)NC(=O)[C@H](C(C)(C)C)NC(=O)[C@H](Cc2ccc(O)cc2)NC1=O) [R4103] | 2 nM
13 | Ac-[Nva]CY[Tle]KH[NMeA][Phg][Trp(7-aza)]Y[NMePhe(4-F)][Sar]C[PEG4][Pra]-NH2 (linker 2-13 via mXylylene; SMILES C#CC[C@H](NC(=O)CCOCCOCCOCCOCCNC(=O)[C@@H]1CSCc2cccc(c2)CSC[C@H](NC(=O)[C@H](CCC)NC(C)=O)C(=O)N[C@@H](Cc2ccc(O)cc2)C(=O)N[C@@H](C(C)(C)C)C(=O)N[C@@H](CCCCN)C(=O)N[C@@H](Cc2c[nH]cn2)C(=O)N(C)[C@@H](C)C(=O)N[C@@H](c2ccccc2)C(=O)N[C@@H](Cc2c[nH]c3ncccc23)C(=O)N[C@@H](Cc2ccc(O)cc2)C(=O)N(C)[C@@H](Cc2ccc(F)cc2)C(=O)N(C)CC(=O)N1)C(N)=O) [R4107] | 9.42 nM
14 | Ac-[Nva]CY[Tle]KH[NMeA][Phg][Trp(7-aza)]Y[NMePhe(4-F)][Sar]C[dS][dA]K[TDSPA]VIM (linker 2-13 via mXylylene) [R4111] | 20.8 nM

Results, then the binder that gave them:

Row | IC50 | Binder
15 | 51.5 nM | Ac-[Nva]CY[Tle]KH[NMeA][Phg][Trp(7-aza)]Y[NMePhe(4-F)][NMeS]C-NH2 (linker 2-13 via mXylylene; SMILES CCC[C@H](NC(C)=O)C(=O)N[C@H]1CSCc2cccc(c2)CSC[C@@H](C(N)=O)NC(=O)[C@H](CO)N(C)C(=O)[C@H](Cc2ccc(F)cc2)N(C)C(=O)[C@H](Cc2ccc(O)cc2)NC(=O)[C@H](Cc2c[nH]c3ncccc23)NC(=O)[C@H](c2ccccc2)NC(=O)[C@H](C)N(C)C(=O)[C@H](Cc2c[nH]cn2)NC(=O)[C@H](CCCCN)NC(=O)[C@H](C(C)(C)C)NC(=O)[C@H](Cc2ccc(O)cc2)NC1=O) [R4118]
16 | 32.7 nM | [Nva]CY[Tle]KH[NMeA][Phg][Trp(7-aza)]Y[NMePhe(4-F)][Sar]C[dS]KGCVIM (linker 2-13 via mXylylene) [R4114]
17 | 34.1 nM | Ac-[Nva]CY[Tle]KH[NMeA][Phg]WY[NMePhe(4-F)][Sar]C-NH2 (linker 2-13 via mXylylene; SMILES CCC[C@H](NC(C)=O)C(=O)N[C@H]1CSCc2cccc(c2)CSC[C@@H](C(N)=O)NC(=O)CN(C)C(=O)[C@H](Cc2ccc(F)cc2)N(C)C(=O)[C@H](Cc2ccc(O)cc2)NC(=O)[C@H](Cc2c[nH]c3ccccc23)NC(=O)[C@H](c2ccccc2)NC(=O)[C@H](C)N(C)C(=O)[C@H](Cc2c[nH]cn2)NC(=O)[C@H](CCCCN)NC(=O)[C@H](C(C)(C)C)NC(=O)[C@H](Cc2ccc(O)cc2)NC1=O) [R4115]
18 | 35.7 nM | Ac-[Nva]CY[Tle]KH[NMeA][Phg][Trp(7-aza)]Y[NMePhe(4-F)][Sar]CGCMSCKCVLS-NH2 (linker 2-13 via mXylylene; cysteine pairing not given here) [R4116]
19 | 32.7 nM | [Nva]CY[Tle]KH[NMeA][Phg][Trp(7-aza)]Y[NMePhe(4-F)][Sar]C[dS]KG[TDSPA]VIM (linker 2-13 via mXylylene) [R4113]
20 | 48.3 nM | Ac-[Nva]C[NMeY][Tle]KH[NMeA][Phg][Trp(7-aza)]Y[NMePhe(4-F)][Sar]C-NH2 (linker 2-13 via mXylylene; SMILES CCC[C@H](NC(C)=O)C(=O)N[C@H]1CSCc2cccc(c2)CSC[C@@H](C(N)=O)NC(=O)CN(C)C(=O)[C@H](Cc2ccc(F)cc2)N(C)C(=O)[C@H](Cc2ccc(O)cc2)NC(=O)[C@H](Cc2c[nH]c3ncccc23)NC(=O)[C@H](c2ccccc2)NC(=O)[C@H](C)N(C)C(=O)[C@H](Cc2c[nH]cn2)NC(=O)[C@H](CCCCN)NC(=O)[C@H](C(C)(C)C)NC(=O)[C@H](Cc2ccc(O)cc2)N(C)C1=O) [R4117]
21 | 64.4 nM | Ac-[Nva]CY[Tle]KH[NMeA][Phg][Trp(7-aza)]Y[NMePhe(4-F)][Sar]CGCGVGIM (linker 2-13 via mXylylene) [R4119]
